Test results published in publication PMC9974302, “Bacterial division ring stabilizing ZapA versus destabilizing SlmA modulate FtsZ switching between biomolecular condensates and polymers” (Open Biology, 2023).

B1: FtsZ (natural protein, E. coli, UniProt P0A9A6 1-383, looked up)
chain: MFEPMELTNDAVIKVIGVGGGGGNAVEHMVRERIEGVEFFAVNTDAQALRKTAVGQTIQIGSGITKGLGAGANPEVGRNAADEDRDALRAALEGADMVFIAAGMGGGTGTGAAPVVAEVAKDLGILTVAVVTKPFNFEGKKRMAFAEQGITELSKHVDSLITIPNDKLLKVLGRGISLLDAFGAANDVLKGAVQGIAELITRPGLMNVDFADVRTVMSEMGYAMMGSGVASGEDRAEEAAEMAISSPLLEDIDLSGARGVLVNITAGFDLRLDEFETVGNTIRAFASDNATVVIGTSLDPDMNDELRVTVVATGIGMDKRPEITLVTNKQVQQPVMDRYQQHGMAPLTQEQKPVAKVVNDNAPQTAKEPDYLDIPAFLRKQAD
modifications: Alexa Fluor 488 or Alexa Fluor 647 on amino groups, only in the tracer fraction (below 1 mole of dye per mole of protein)
notes: Cell division GTPase FtsZ, E. coli; The methods name no species for the construct; Oligomers without GTP (GDP form), polymers with GTP; also called FtsZ-Alexa 647; source: purified as described in [6,22,25]

Assays:
[1] = biological target: the molecule itself; test: fluorescence polarisation; anisotropy with time after addition of GTP; 5 uM FtsZ with 50 nM FtsZ-Alexa 488 as tracer; solution buffer with 300 mM KCl; 27 C
[2] = biological target: the molecule itself; test: fluorescence correlation spectroscopy; no GTP (FtsZ oligomers); solution buffer with 100 mM KCl; 10 nM ZapA-Alexa 488 or SBS-Alexa 488 as tracer; 5 uM ZapA, 5 uM SlmA, 1 uM SBS, 50 or 20 uM FtsZ
FtsZ = biological target: B1; test: fluorescence correlation spectroscopy; FtsZ polymers: 10 uM FtsZ, 2 mM GTP and enzymatic GTP regeneration system; 10 nM labelled tracer; solution buffer; conditions: both partners purified

| binding result (FtsZ) | Binder | binding result [1] | stoichiometry N [2] |
| --- | --- | --- | --- |
| – | B1 | binds | – |
| binds | ZapA (natural protein, E. coli, UniProt P0ADS2 1-109, looked up, Alexa Fluor 488 on amino groups, only in the tracer fraction (below 1 mole of dye per mole of protein), Cell division protein ZapA, E. coli; Dimer-tetramer equilibrium that depends on salt; source: BL21(DE3) strain carrying plasmid pEJR029b, purified) MSAQPVDIQIFGRSLRVNCPPDQRDALNQAADDLNQRLQDLKERTRVTNTEQLVFIAALNISYELAQEKAKTRDYAASMEQRIRMLQQTIEQALLEQGRITEKTNQNFE | – | 4 |
